For ten sequences, protein stability index results are on record in the supplement of paper PMC10724198.

± gives the standard deviation of the averaged measurements.

Data set [1] relates to Saccharomyces cerevisiae. As to the kind of experiment: protein stability index of tFT-peptide fusion (C-terminal peptide) (PSI (0-1 scale)); higher = more stable (slower turnover). The method, then:
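MPS profiling in S. cerevisiae of the tFT-X12 degron library: putative degron peptides plus stable controls, 12 aa, fused to the C-terminus of a sfGFP-mCherry timer. Cells are FACS-sorted into 8 mCherry/sfGFP bins and deep-sequenced. PSI runs from 0 (unstable) to 1 (stable). Backgrounds are wild type, das1Δ and doa10Δ at 30 °C, and wild type, das1Δ, cdc34-1 and cdc53-1 at 37 °C; 2-3 technical replicates each.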

Data set [2] has as its system Saccharomyces cerevisiae. The data set is described as above. Conditions: genetic background: wild type; temperature: 30 C.
Where [3] appears, read: genetic background: cdc34-1, temperature: 37 C.
Where [4] appears, read: genetic background: cdc53-1, temperature: 37 C.
The mark [5] stands for this setting: genetic background: das1 deletion, temperature: 30 C.
Setting [6] is: genetic background: das1 deletion, temperature: 37 C.
Setting [7] is: genetic background: doa10 deletion, temperature: 30 C.
Where [8] appears, read: genetic background: wild type, temperature: 30 C.
[9] abbreviates: genetic background: wild type, temperature: 37 C.
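Also: PSI is a weighted mean of sequencing reads over stability bins, variants kept only with over 10 reads, mCherry proximal and sfGFP distal, peptide attached via GGGS linker.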

AYVAPRRALMCS: the protein stability index is 0.422 ± 0.02 in the data set with Saccharomyces cerevisiae [1] (setting [3]); 0.495 ± 0.019 with Saccharomyces cerevisiae [1] (setting [4]); 0.352 ± 0.031 in the data set with Saccharomyces cerevisiae [1] (setting [5]); 0.517 ± 0.011 with Saccharomyces cerevisiae [1] (setting [6]); 0.259 ± 0.011 in the data set on Saccharomyces cerevisiae [1] (setting [7]); 0.281 ± 0.018 with Saccharomyces cerevisiae [1] (setting [8]). In addition, the protein stability index in the data set on Saccharomyces cerevisiae [1] (setting [9]) stood at 0.406 ± 0.017; in the data set on Saccharomyces cerevisiae [2], 0.421 ± 0.069.
With CEERVKSRLKQN, the protein stability index with Saccharomyces cerevisiae [1] (setting [3]) is 0.619 ± 0.011; in the data set with Saccharomyces cerevisiae [1] (setting [4]), 0.68 ± 0.013; in the data set on Saccharomyces cerevisiae [1] (setting [5]), 0.653 ± 0.043; in the data set with Saccharomyces cerevisiae [1] (setting [6]), 0.728 ± 0.014; in the data set with Saccharomyces cerevisiae [1] (setting [7]) it was 0.174 ± 0.012; with Saccharomyces cerevisiae [1] (setting [8]) it was 0.18 ± 0.031. In addition, the protein stability index in the data set with Saccharomyces cerevisiae [1] (setting [9]) stood at 0.307 ± 0.022; with Saccharomyces cerevisiae [2] it was 0.226 ± 0.082.
As for CFCLFVFFISSC, the protein stability index with Saccharomyces cerevisiae [1] (setting [3]) came out at 0.2112 ± 0.00091; in the data set with Saccharomyces cerevisiae [1] (setting [4]), 0.414 ± 0.015; in the data set on Saccharomyces cerevisiae [1] (setting [5]), 0.223 ± 0.033; in the data set on Saccharomyces cerevisiae [1] (setting [6]), 0.459 ± 0.015; in the data set on Saccharomyces cerevisiae [1] (setting [7]), 0.19 ± 0.019; with Saccharomyces cerevisiae [1] (setting [8]), 0.233 ± 0.019. For the same sequence, the protein stability index with Saccharomyces cerevisiae [1] (setting [9]) is 0.397 ± 0.015; in the data set on Saccharomyces cerevisiae [2], 0.362 ± 0.057.
On to CFCSFQFVRLWV, for which the protein stability index amounted to 0.593 ± 0.0065 in the data set on Saccharomyces cerevisiae [1] (setting [3]); 0.6165 ± 0.0048 with Saccharomyces cerevisiae [1] (setting [4]); 0.49 ± 0.028 in the data set on Saccharomyces cerevisiae [1] (setting [5]); 0.6443 ± 0.0064 in the data set on Saccharomyces cerevisiae [1] (setting [6]); 0.455 ± 0.03 with Saccharomyces cerevisiae [1] (setting [7]); 0.444 ± 0.011 in the data set on Saccharomyces cerevisiae [1] (setting [8]). Besides, the protein stability index with Saccharomyces cerevisiae [1] (setting [9]) was 0.58 ± 0.0096; in the data set on Saccharomyces cerevisiae [2] it was 0.452 ± 0.062.
With CFFFPCFSFRFL, the protein stability index was 0.39 ± 0.0076 in the data set with Saccharomyces cerevisiae [1] (setting [3]); 0.448 ± 0.012 in the data set with Saccharomyces cerevisiae [1] (setting [4]); 0.416 ± 0.024 in the data set on Saccharomyces cerevisiae [1] (setting [5]); 0.528 ± 0.015 with Saccharomyces cerevisiae [1] (setting [6]); 0.377 ± 0.02 with Saccharomyces cerevisiae [1] (setting [7]); 0.296 ± 0.011 in the data set on Saccharomyces cerevisiae [1] (setting [8]). Further, the protein stability index in the data set on Saccharomyces cerevisiae [1] (setting [9]) worked out at 0.453 ± 0.033; with Saccharomyces cerevisiae [2] it was 0.342 ± 0.041.
As for CFFICGVFVFLM, the protein stability index in the data set with Saccharomyces cerevisiae [1] (setting [3]) was determined as 0.21 ± 0.07; with Saccharomyces cerevisiae [1] (setting [4]), 0.338 ± 0.029; with Saccharomyces cerevisiae [1] (setting [5]), 0.257 ± 0.03; in the data set on Saccharomyces cerevisiae [1] (setting [6]) it was 0.435 ± 0.014; with Saccharomyces cerevisiae [1] (setting [7]) it was 0.229 ± 0.01; in the data set on Saccharomyces cerevisiae [1] (setting [8]) it was 0.244 ± 0.034. Besides, the protein stability index came out at 0.4088 ± 0.0015 in the data set on Saccharomyces cerevisiae [1] (setting [9]) and 0.3651 ± 0.00098 in the data set with Saccharomyces cerevisiae [2].
As for CFFILSLMVVVI, the protein stability index with Saccharomyces cerevisiae [1] (setting [3]) came out at 0.0733 ± 0.0068; in the data set with Saccharomyces cerevisiae [1] (setting [4]), 0.16 ± 0.027; in the data set on Saccharomyces cerevisiae [1] (setting [5]), 0.12 ± 0.029; in the data set on Saccharomyces cerevisiae [1] (setting [6]), 0.229 ± 0.0071; with Saccharomyces cerevisiae [1] (setting [7]), 0.0944 ± 0.0056; with Saccharomyces cerevisiae [1] (setting [8]), 0.0999 ± 0.03. The protein stability index in the data set with Saccharomyces cerevisiae [1] (setting [9]) is 0.183 ± 0.0091; in the data set with Saccharomyces cerevisiae [2] it was 0.194 ± 0.054.
As for CFFLSFNVFRLF, the protein stability index in the data set with Saccharomyces cerevisiae [1] (setting [3]) was found to be 0.465 ± 0.059; with Saccharomyces cerevisiae [1] (setting [4]), 0.559 ± 0.011; with Saccharomyces cerevisiae [1] (setting [5]), 0.498 ± 0.034; with Saccharomyces cerevisiae [1] (setting [6]) it was 0.633 ± 0.022; in the data set with Saccharomyces cerevisiae [1] (setting [7]), 0.107 ± 0.0097; in the data set on Saccharomyces cerevisiae [1] (setting [8]), 0.114 ± 0.033. In addition, the protein stability index with Saccharomyces cerevisiae [1] (setting [9]) came to 0.113 ± 0.0019; with Saccharomyces cerevisiae [2] it was 0.148 ± 0.05.
CFVISVLFFFVG: the protein stability index is 0.292 ± 0.011 in the data set on Saccharomyces cerevisiae [1] (setting [3]); 0.491 ± 0.035 with Saccharomyces cerevisiae [1] (setting [4]); 0.288 ± 0.035 with Saccharomyces cerevisiae [1] (setting [5]); 0.467 ± 0.015 with Saccharomyces cerevisiae [1] (setting [6]); 0.284 ± 0.024 with Saccharomyces cerevisiae [1] (setting [7]); 0.286 ± 0.013 in the data set with Saccharomyces cerevisiae [1] (setting [8]). In addition, the protein stability index amounted to 0.436 ± 0.03 with Saccharomyces cerevisiae [1] (setting [9]) and 0.444 ± 0.025 with Saccharomyces cerevisiae [2].
For the sequence CFVLVVCIPVMV, the protein stability index was found to be 0.2 ± 0.0041 with Saccharomyces cerevisiae [1] (setting [3]); 0.247 ± 0.033 in the data set with Saccharomyces cerevisiae [1] (setting [4]); 0.198 ± 0.023 in the data set with Saccharomyces cerevisiae [1] (setting [5]); 0.3457 ± 0.0017 with Saccharomyces cerevisiae [1] (setting [6]); 0.18 ± 0.009 in the data set on Saccharomyces cerevisiae [1] (setting [7]); 0.207 ± 0.024 in the data set with Saccharomyces cerevisiae [1] (setting [8]). Moreover, the protein stability index in the data set on Saccharomyces cerevisiae [1] (setting [9]) stood at 0.3279 ± 0.0019; in the data set with Saccharomyces cerevisiae [2], 0.31 ± 0.035.
